Measurements as given in paper PMC8263589, “The role of membrane destabilisation and protein dynamics in BAM catalysed OMP folding” (Nature Communications, 2021).

Assays:
[1] = target: BamA, as the subunit of WT BAM (Escherichia coli K-12); assay: cryo-EM structure; purified BAM (WT or BAM-LL) mixed with Fab1 in DDM micelles, pH 8.0, 150 mM NaCl; WT BAM with a 2-fold molar excess of Fab1, complex isolated on Superdex 200; BAM-LL and Fab1 mixed 1:1; conditions: both partners purified
[2] = target: WT BAM complex (BamABCDE-His6) (Escherichia coli K-12); assay: as above; conditions: both partners purified

- binding result [1]: binds
- binding result [2]: binds
B1: Fab1, anti-BamA monoclonal antibody Fab fragment (Fab, V domains shown)
VH: EVQLVESGGGLVQPGRSLKLSCVASRFTFSNYGMNWIRQTPGKGLEWVAYIGSTSSHIYYAETVKGRFTISRDNAKNTLYLQMTGLRSEDTALYYCVGHVRKLGAFFDYWGQGAMVTVSS
VL: DIQMTQSPASLSASLGETVTIECRASEDIHSRLAWYQQKPGKSPQLLIYNANSLHTGVPSRFSGSGSGTQFSLKINSLQSEDVASYFCLQYYNYPPYTFGAGAKLELR
notes: heavy chain of Fab1 in the crystal structure deposited here (PDB 7BM5); light chain of Fab1 in the crystal structure deposited here (PDB 7BM5); also called bactericidal Fab fragment; Fab of MAB1; source: E. coli, purified (Protein G, SP Sepharose, Superdex 75)
